Measurements from patent publication US20220098307A1 (WUHAN YZY BIOPHARMA, published 2022).

T1: Human BCMA (human, UniProt Q02223 1-54)
T1 sequence: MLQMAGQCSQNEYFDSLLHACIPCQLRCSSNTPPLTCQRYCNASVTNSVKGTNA

B1: M2IC-DG2 (bispecific antibody, human IgG1, kappa)
chain: EVKLDETGGGLVQPGRPMKLSCVASGFTFSDYWMNWVRQSPEKGLEWVAQIRNKPYNYETYYSDSVKGRFTISRDDSKSSVYLQMNNLRVEDMGIYYCTGSYYGMDYWGQGTSVTVSSASTKGPSVFPLAPSSKSTSGGTAALGCLVKDYFPEPVTVSWNSGALTSGVHTFPAVLQSSGLYSLSSVVTVPSSSLGTQTYICNVNHKPSNTKVDKKVEPKSCDKTHTGGGSAAAQVQLVESGGGVVQPGRSLRLSCAASGFTFSTYAMNWVRQAPGKGLEWVARIRSKYNNYATYYADSVKDRFTISRDDSKNTLYLQMNSLRAEDTAVYYCARHGNFGNSYVSWFAYWGQGTLVTVSSGGGGSGGGGSGGGGSQTVVTQEPSLTVSPGGTVTLTCRSSTGAVTTSNYANWVQQKPGQAPRGLIGGTNKRAPGVPARFSGSLLGGKAALTLSGVQPEDEAEYYCALWYSNLWVFGGGTKVEIKGGGGSDKTHTCPPCPAPPVAGPSVFLFPPKPKDTLMISRTPEVTCVVVAVSHEDPEVQFNWYVDGVEVHNAKTKPREEQFNSTFRVVSVLTVVHQDWLNGKEYKCKVSNKGLPAPIEKTISKTKGQPREPQVYTLPPCRDELTKNQVSLWCLVKGFYPSDIAVEWESNGQPENNYKTTPPVLDSDGSFFLYSKLTVDKSRWQQGNVFSCSVMHEALHNHYTQKSLSLSPGK
heavy: EVKLDETGGGLVQPGRPMKLSCVASGFTFSDYWMNWVRQSPEKGLEWVAQIRNKPYNYETYYSDSVKGRFTISRDDSKSSVYLQMNNLRVEDMGIYYCTGSYYGMDYWGQGTSVTVSSASTKGPSVFPLAPSSKSTSGGTAALGCLVKDYFPEPVTVSWNSGALTSGVHTFPAVLQSSGLYSLSSVVTVPSSSLGTQTYICNVNHKPSNTKVDKKVEPKSCDKTHTCPPCPAPPVAGPSVFLFPPKPKDTLMISRTPEVTCVVVAVSHEDPEVQFNWYVDGVEVHNAKTKPREEQFNSTFRVVSVLTVVHQDWLNGKEYKCKVSNKGLPAPIEKTISKTKGQPREPQVCTLPPSRDELTKNQVSLSCAVKGFYPSDIAVEWESNGQPENNYKTTPPVLDSDGSFFLVSKLTVDKSRWQQGNVFSCSVMHEALHNRFTQKSLSLSPGK
light: DVVMTQTPLSLPVSLGDQASISCRSSQSLVHSNGNTYLRWYLQKPGQSPKVLIYKVSNRFSGVPDRFSGSGSGTDFTLKISRVEAEDLGVYFCSQSTHVPWTFGGGTKLEIKRTVAAPSVFIFPPSDEQLKSGTASVVCLLNNFYPREAKVQWKVDNALQSGNSQESVTEQDSKDSTYSLSSTLTLSKADYEKHKVYACEVTHQGLSSPVTKSFNRGEC
notes: structure 2 isotype control; CH2 DG2CH2
B2: M2IC-G2D (bispecific antibody, human IgG1, kappa)
chain: EVKLDETGGGLVQPGRPMKLSCVASGFTFSDYWMNWVRQSPEKGLEWVAQIRNKPYNYETYYSDSVKGRFTISRDDSKSSVYLQMNNLRVEDMGIYYCTGSYYGMDYWGQGTSVTVSSASTKGPSVFPLAPSSKSTSGGTAALGCLVKDYFPEPVTVSWNSGALTSGVHTFPAVLQSSGLYSLSSVVTVPSSSLGTQTYICNVNHKPSNTKVDKKVEPKSCDKTHTGGGSAAAQVQLVESGGGVVQPGRSLRLSCAASGFTFSTYAMNWVRQAPGKGLEWVARIRSKYNNYATYYADSVKDRFTISRDDSKNTLYLQMNSLRAEDTAVYYCARHGNFGNSYVSWFAYWGQGTLVTVSSGGGGSGGGGSGGGGSQTVVTQEPSLTVSPGGTVTLTCRSSTGAVTTSNYANWVQQKPGQAPRGLIGGTNKRAPGVPARFSGSLLGGKAALTLSGVQPEDEAEYYCALWYSNLWVFGGGTKVEIKGGGGSDKTHTCPPCPAPPVAGPSVFLFPPKPKDTLMISRTPEVTCVVVDVSHEAPEVQFNWYVDGVEVHNAKTKPREEQFNSTFRVVSVLTVVHQDWLNGKEYKCKVSNKGLPAPIEKTISKTKGQPREPQVYTLPPCRDELTKNQVSLWCLVKGFYPSDIAVEWESNGQPENNYKTTPPVLDSDGSFFLYSKLTVDKSRWQQGNVFSCSVMHEALHNHYTQKSLSLSPGK
heavy: EVKLDETGGGLVQPGRPMKLSCVASGFTFSDYWMNWVRQSPEKGLEWVAQIRNKPYNYETYYSDSVKGRFTISRDDSKSSVYLQMNNLRVEDMGIYYCTGSYYGMDYWGQGTSVTVSSASTKGPSVFPLAPSSKSTSGGTAALGCLVKDYFPEPVTVSWNSGALTSGVHTFPAVLQSSGLYSLSSVVTVPSSSLGTQTYICNVNHKPSNTKVDKKVEPKSCDKTHTCPPCPAPPVAGPSVFLFPPKPKDTLMISRTPEVTCVVVDVSHEAPEVQFNWYVDGVEVHNAKTKPREEQFNSTFRVVSVLTVVHQDWLNGKEYKCKVSNKGLPAPIEKTISKTKGQPREPQVCTLPPSRDELTKNQVSLSCAVKGFYPSDIAVEWESNGQPENNYKTTPPVLDSDGSFFLVSKLTVDKSRWQQGNVFSCSVMHEALHNRFTQKSLSLSPGK
light: DVVMTQTPLSLPVSLGDQASISCRSSQSLVHSNGNTYLRWYLQKPGQSPKVLIYKVSNRFSGVPDRFSGSGSGTDFTLKISRVEAEDLGVYFCSQSTHVPWTFGGGTKLEIKRTVAAPSVFIFPPSDEQLKSGTASVVCLLNNFYPREAKVQWKVDNALQSGNSQESVTEQDSKDSTYSLSSTLTLSKADYEKHKVYACEVTHQGLSSPVTKSFNRGEC
notes: structure 2 isotype control; CH2 G2DCH2
B3: M2IC-DG2D (bispecific antibody, human IgG1, kappa)
chain: EVKLDETGGGLVQPGRPMKLSCVASGFTFSDYWMNWVRQSPEKGLEWVAQIRNKPYNYETYYSDSVKGRFTISRDDSKSSVYLQMNNLRVEDMGIYYCTGSYYGMDYWGQGTSVTVSSASTKGPSVFPLAPSSKSTSGGTAALGCLVKDYFPEPVTVSWNSGALTSGVHTFPAVLQSSGLYSLSSVVTVPSSSLGTQTYICNVNHKPSNTKVDKKVEPKSCDKTHTGGGSAAAQVQLVESGGGVVQPGRSLRLSCAASGFTFSTYAMNWVRQAPGKGLEWVARIRSKYNNYATYYADSVKDRFTISRDDSKNTLYLQMNSLRAEDTAVYYCARHGNFGNSYVSWFAYWGQGTLVTVSSGGGGSGGGGSGGGGSQTVVTQEPSLTVSPGGTVTLTCRSSTGAVTTSNYANWVQQKPGQAPRGLIGGTNKRAPGVPARFSGSLLGGKAALTLSGVQPEDEAEYYCALWYSNLWVFGGGTKVEIKGGGGSDKTHTCPPCPAPPVAGPSVFLFPPKPKDTLMISRTPEVTCVVVAVSHEAPEVQFNWYVDGVEVHNAKTKPREEQFNSTFRVVSVLTVVHQDWLNGKEYKCKVSNKGLPAPIEKTISKTKGQPREPQVYTLPPCRDELTKNQVSLWCLVKGFYPSDIAVEWESNGQPENNYKTTPPVLDSDGSFFLYSKLTVDKSRWQQGNVFSCSVMHEALHNHYTQKSLSLSPGK
heavy: EVKLDETGGGLVQPGRPMKLSCVASGFTFSDYWMNWVRQSPEKGLEWVAQIRNKPYNYETYYSDSVKGRFTISRDDSKSSVYLQMNNLRVEDMGIYYCTGSYYGMDYWGQGTSVTVSSASTKGPSVFPLAPSSKSTSGGTAALGCLVKDYFPEPVTVSWNSGALTSGVHTFPAVLQSSGLYSLSSVVTVPSSSLGTQTYICNVNHKPSNTKVDKKVEPKSCDKTHTCPPCPAPPVAGPSVFLFPPKPKDTLMISRTPEVTCVVVAVSHEAPEVQFNWYVDGVEVHNAKTKPREEQFNSTFRVVSVLTVVHQDWLNGKEYKCKVSNKGLPAPIEKTISKTKGQPREPQVCTLPPSRDELTKNQVSLSCAVKGFYPSDIAVEWESNGQPENNYKTTPPVLDSDGSFFLVSKLTVDKSRWQQGNVFSCSVMHEALHNRFTQKSLSLSPGK
light: DVVMTQTPLSLPVSLGDQASISCRSSQSLVHSNGNTYLRWYLQKPGQSPKVLIYKVSNRFSGVPDRFSGSGSGTDFTLKISRVEAEDLGVYFCSQSTHVPWTFGGGTKLEIKRTVAAPSVFIFPPSDEQLKSGTASVVCLLNNFYPREAKVQWKVDNALQSGNSQESVTEQDSKDSTYSLSSTLTLSKADYEKHKVYACEVTHQGLSSPVTKSFNRGEC
notes: structure 2 isotype control; CH2 DG2DCH2

Columns and labels:
[1] = target: T2, Human CD3ε (human, UniProt P07766 23-126); experiment: flow cytometry, human T cells
T2 construct: CD3 on T cells isolated from human whole blood
In short: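 Cells expressing the target antigen (CD38+ MM.1S or RPMI 8226 for CD38; isolated T cells for CD3) were plated at 2×10⁵ per well in 1% FBS-PBS on ice. Antibody was titrated 3-fold over 11 points from 3000 nM and incubated 2 h at 4° C with shaking, followed by PE anti-human IgG Fc.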

[2] = target: T3, Monkey CD3 (monkey); experiment: flow cytometry, monkey T cells
T3 construct: whole, on cells; also called CD3 of monkey CD3 positive T cells

[3] = target: T1, Human BCMA; experiment: flow cytometry, human tumor cells (table of the BCMA series)
Text: 1) Cell preparation: T cells isolated from CD3-positive human whole blood were used for a CD3 end affinity detection of multifunctional antibody molecule; positive tumor cells of corresponding antigen were used for detecting affinity of tumor antigen; for example, CD38-positive MM. 1S cells (purchased from the Cell Resource Center of Shanghai Institutes for Biological Sciences, Chinese Academy of Sciences) or RPMI 8226 cells (purchased from the Cell Resource Center of Shanghai Institutes for Biological Sciences, Chinese Academy of Sciences) were used for CD38 antigen detection, and PD-L1 positive H358 cells (purchased from the Cell Resource Center of Shanghai Institutes for Biological Sciences, Chinese Academy of Sciences) were used for PD-L1 antigen detection, and so on. The cells were resuspended with 1% FBS-PBS, adjusted to a density of 4×10⁶/ml, and 50 μl of cells were taken from each well, and then plated at 2×10⁵ per well. Cell plating was operated on ice
2) Addition of the antibody: according to the experimental design, the antibody was diluted gradually, and dilution of antibody was operated on ice. For example, the initial concentration of antibody for dilution was 3000 nM, and the antibody was diluted by 3 times with 11 concentration gradients. The diluted antibody was added to a cell well at 50 μl per well, mixed well, and shaked and incubated at 4° C. 1100 rpm/min for 2 h; after washing, the cells were resuspend in 1% FBS-PBS, and a diluted secondary antibody PE anti-human IgG FC (Biolegend, 409304) was added with a final concentration of 8 ug/ml and a volume of 50 μl/well. At the same time, a well only added with cells and secondary antibody was set as a control, the components were mixed well, and incubated under shaking at 1100 rpm/min at 4° C. for 1 h;
5) Data analysis: the data was analyzed by a flow analysis software FlowJo 7.6 thereby obtaining an average fluorescence intensity of the specific antibody concentration, plotted by a Graphpad Prism 5 with the antibody concentration (nM) as an abscissa and the average fluorescence intensity as an ordinate; the EC50 value was calculated by the method of One site—Specific binding, and the EC50 value indicated the cell affinity of the antibody to the corresponding target antigen.

Binder | EC50 [1] [nM] | EC50 [2] [nM] | binding result [3]
B1 | 357 | 570 | no binding
B2 | 367 | 538 | no binding
B3 | 452 | 519 | no binding
